From article PMC9482650, “Quantitative fragmentomics allow affinity mapping of interactomes” (Nature Communications, 2022)

Key:
Assay in all cases: holdup assay
Set-up in all cases: key: below the threshold = too weak to quantify, mostly under pKd 3.1 to 4
[1] = target: T1, PARD3B_1, Q8TEW8
T1 sequence (Q8TEW8 196-299, limits assumed, looked up): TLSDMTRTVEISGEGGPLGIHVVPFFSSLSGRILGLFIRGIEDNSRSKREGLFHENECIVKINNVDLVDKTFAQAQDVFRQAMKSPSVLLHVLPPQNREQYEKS

[2] = target: GOPC, Q9HD26
[3] = target: T2, APBA2_1, Q99767
T2 sequence (Q99767 563-664, limits assumed, looked up): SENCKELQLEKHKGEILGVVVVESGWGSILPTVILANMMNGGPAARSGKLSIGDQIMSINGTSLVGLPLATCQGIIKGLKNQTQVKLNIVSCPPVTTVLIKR

[4] = target: T3, RAPGEF6, Q8TEU7
T3 sequence (Q8TEU7 525-625, limits assumed, looked up): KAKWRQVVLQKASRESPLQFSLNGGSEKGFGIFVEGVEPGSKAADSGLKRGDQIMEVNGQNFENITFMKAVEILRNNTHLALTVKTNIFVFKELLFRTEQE

[5] = target: MAGI3_2, Q5TCQ9
[6] = target: AHNAK1, Q09666
[7] = target: T4, APBA1_1, Q02410
T4 sequence (Q02410 651-752, limits assumed, looked up): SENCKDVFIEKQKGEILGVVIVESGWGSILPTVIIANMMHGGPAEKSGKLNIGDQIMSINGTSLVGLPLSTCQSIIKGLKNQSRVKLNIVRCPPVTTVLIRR

[8] = target: T5, RADIL, Q96JH8
T5 sequence (Q96JH8 971-1071, limits assumed, looked up): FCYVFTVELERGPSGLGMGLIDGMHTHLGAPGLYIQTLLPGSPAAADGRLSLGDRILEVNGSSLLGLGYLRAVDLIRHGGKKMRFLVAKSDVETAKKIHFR

[9] = target: IL16_1, Q14005
[10] = target: GRASP, Q7Z6J2
[11] = target: T6, MPDZ_10, O75970
T6 sequence (O75970 1624-1722, limits assumed, looked up): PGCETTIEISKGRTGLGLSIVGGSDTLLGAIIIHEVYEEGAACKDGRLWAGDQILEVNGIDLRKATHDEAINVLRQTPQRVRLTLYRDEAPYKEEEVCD

[12] = target: T7, MPDZ_12, O75970
T7 sequence (O75970 1857-1958, limits assumed, looked up): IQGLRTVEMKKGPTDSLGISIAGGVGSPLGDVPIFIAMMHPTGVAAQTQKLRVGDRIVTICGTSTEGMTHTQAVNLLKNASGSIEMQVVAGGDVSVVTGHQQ

[13] = target: T8, SHANK1, Q9Y566
T8 sequence (Q9Y566 658-767, limits assumed, looked up): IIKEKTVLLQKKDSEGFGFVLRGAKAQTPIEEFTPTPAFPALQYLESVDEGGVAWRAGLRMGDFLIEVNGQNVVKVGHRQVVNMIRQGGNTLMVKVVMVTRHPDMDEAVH

[14] = target: Inadl_9, Q8NI35
[15] = target: T9, ARHGAP21, Q5T5U3
T9 sequence (Q5T5U3 45-169, limits assumed, looked up): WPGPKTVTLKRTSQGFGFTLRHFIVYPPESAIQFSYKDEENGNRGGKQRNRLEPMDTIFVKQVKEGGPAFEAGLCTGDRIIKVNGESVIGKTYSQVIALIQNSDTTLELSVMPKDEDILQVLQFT

[16] = target: SCRIB_1, Q14160
[17] = target: MAGI2_4, Q86UL8
[18] = target: T10, MPDZ_5, O75970
T10 sequence (O75970 695-796, limits assumed, looked up): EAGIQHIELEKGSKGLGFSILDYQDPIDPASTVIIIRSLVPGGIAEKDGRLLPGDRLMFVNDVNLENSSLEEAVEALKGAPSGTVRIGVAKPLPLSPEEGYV

[19] = target: FRMPD2_2, Q68DX3
[20] = target: LNX1_1, Q8TBB1
[21] = target: NHERF4_1, Q86UT5-2
[22] = target: LAP2, Q96RT1
[23] = target: NHERF4_2, Q86UT5
[24] = target: DLG1_3, Q12959
[25] = target: GRID2IP_1, A4D2P6
[26] = target: DLG5_1, Q8TDM6
[27] = plain residues with an end cap or a label only (N-terminal biotin on a linker: ado-ado)
[28] = plain residues with an end cap or a label only (N-terminal biotin on a linker: ttds)

Sequence of Inadl_9, Q8NI35 (Q8NI35 1530-1615): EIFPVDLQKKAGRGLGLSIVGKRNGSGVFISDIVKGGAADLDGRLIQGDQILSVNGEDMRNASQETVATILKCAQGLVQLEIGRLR
Sequence of LNX1_1, Q8TBB1 (Q8TBB1 261-371): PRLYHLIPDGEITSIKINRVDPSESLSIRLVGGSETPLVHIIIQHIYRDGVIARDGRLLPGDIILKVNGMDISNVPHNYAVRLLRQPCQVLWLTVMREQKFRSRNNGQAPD
Sequence of MAGI3_2, Q5TCQ9 (Q5TCQ9 398-503): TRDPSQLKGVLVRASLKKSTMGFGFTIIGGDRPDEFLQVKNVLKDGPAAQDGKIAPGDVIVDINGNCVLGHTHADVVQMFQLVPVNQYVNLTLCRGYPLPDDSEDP
Sequence of DLG5_1, Q8TDM6 (Q8TDM6 617-713): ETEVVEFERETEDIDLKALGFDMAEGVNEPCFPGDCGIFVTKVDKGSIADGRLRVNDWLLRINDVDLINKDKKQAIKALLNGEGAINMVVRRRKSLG
Sequence of NHERF4_1, Q86UT5-2 (Q86UT5 other isoform, or with tags, fused parts or gaps): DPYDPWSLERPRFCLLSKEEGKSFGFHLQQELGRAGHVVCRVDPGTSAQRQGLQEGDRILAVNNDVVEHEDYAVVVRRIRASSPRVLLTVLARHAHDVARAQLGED
Sequence of GRASP, Q7Z6J2 (Q7Z6J2 96-193): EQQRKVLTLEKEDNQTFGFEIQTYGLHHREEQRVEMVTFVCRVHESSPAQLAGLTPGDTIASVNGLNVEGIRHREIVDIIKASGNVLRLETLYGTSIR
Sequence of DLG1_3, Q12959 (Q12959 457-571): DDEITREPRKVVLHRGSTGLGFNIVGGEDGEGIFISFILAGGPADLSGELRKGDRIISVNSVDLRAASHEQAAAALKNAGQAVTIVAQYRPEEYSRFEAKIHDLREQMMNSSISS
Sequence of LAP2, Q96RT1 (Q96RT1 other isoform, or with tags, fused parts or gaps): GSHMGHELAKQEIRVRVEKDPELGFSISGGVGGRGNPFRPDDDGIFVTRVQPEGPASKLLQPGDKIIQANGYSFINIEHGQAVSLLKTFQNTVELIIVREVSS
Sequence of MAGI2_4, Q86UL8 (Q86UL8 772-865): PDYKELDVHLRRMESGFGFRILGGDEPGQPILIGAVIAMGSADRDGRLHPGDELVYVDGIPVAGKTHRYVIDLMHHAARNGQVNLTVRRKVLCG
Sequence of FRMPD2_2, Q68DX3 (Q68DX3 944-1038): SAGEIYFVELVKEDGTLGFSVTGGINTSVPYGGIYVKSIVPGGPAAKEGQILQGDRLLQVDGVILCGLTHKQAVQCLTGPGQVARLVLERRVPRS
Sequence of NHERF4_2, Q86UT5 (Q86UT5 220-308): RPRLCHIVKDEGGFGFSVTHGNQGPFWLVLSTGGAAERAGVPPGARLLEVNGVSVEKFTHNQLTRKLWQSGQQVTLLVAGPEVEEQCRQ
Sequence of GRID2IP_1, A4D2P6 (A4D2P6 1-87): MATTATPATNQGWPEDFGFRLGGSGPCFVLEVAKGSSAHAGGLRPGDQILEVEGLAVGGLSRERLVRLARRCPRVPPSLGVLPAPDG
Sequence of IL16_1, Q14005 (Q14005 210-306): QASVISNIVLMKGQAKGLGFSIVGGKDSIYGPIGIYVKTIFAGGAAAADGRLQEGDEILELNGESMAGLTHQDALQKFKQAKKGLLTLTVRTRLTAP
Sequence of SCRIB_1, Q14160 (Q14160 718-814): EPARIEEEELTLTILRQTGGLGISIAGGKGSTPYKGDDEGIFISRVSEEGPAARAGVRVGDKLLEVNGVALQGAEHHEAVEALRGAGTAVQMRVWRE

Binder: LHLHGTGIQV [EPHA7, Q15375]
- pKd [1, 27]: 3.72
- pKd [2, 27]: below the threshold
- pKd [3, 27]: below the threshold
- pKd [4, 27]: below the threshold
- pKd [5, 27]: 3.55
- pKd [6, 27]: below the threshold
- pKd [7, 27]: below the threshold
- pKd [8, 27]: 4.58
- pKd [9, 27]: below the threshold
- pKd [10, 27]: below the threshold
- pKd [11, 27]: below the threshold
- pKd [12, 27]: 3.55
- pKd [13, 27]: below the threshold
- pKd [14, 27]: 4.37
- pKd [15, 27]: 3.73
- pKd [16, 27]: below the threshold
- pKd [17, 27]: 3.83
- pKd [18, 27]: 4.1
- pKd [19, 27]: below the threshold
- pKd [20, 27]: below the threshold
- pKd [21, 27]: 3.85
- pKd [22, 27]: 3.63
- pKd [23, 27]: 3.54
- pKd [24, 27]: 3.69
- pKd [25, 27]: below the threshold
- pKd [26, 27]: below the threshold

Binder: RGGFGRQTQI [NCBP2L, A6PVI3]
- pKd [1, 27]: below the threshold
- pKd [2, 27]: 4.05
- pKd [3, 27]: below the threshold
- pKd [4, 27]: below the threshold
- pKd [5, 27]: 4.79
- pKd [6, 27]: below the threshold
- pKd [7, 27]: below the threshold
- pKd [8, 27]: below the threshold
- pKd [9, 27]: below the threshold
- pKd [10, 27]: below the threshold
- pKd [11, 27]: below the threshold
- pKd [12, 27]: 3.76
- pKd [13, 27]: below the threshold
- pKd [14, 27]: below the threshold
- pKd [15, 27]: below the threshold
- pKd [16, 27]: 3.61
- pKd [17, 27]: below the threshold
- pKd [18, 27]: below the threshold
- pKd [19, 27]: below the threshold
- pKd [20, 27]: below the threshold
- pKd [21, 27]: 3.8
- pKd [22, 27]: below the threshold
- pKd [23, 27]: below the threshold
- pKd [24, 27]: 4.24
- pKd [25, 27]: below the threshold
- pKd [26, 27]: below the threshold

Binder: TGDTLEKFVEGL [CBP, Q92793]
- pKd [1, 28]: below the threshold
- pKd [2, 28]: below the threshold
- pKd [3, 28]: below the threshold
- pKd [4, 28]: below the threshold
- pKd [5, 28]: below the threshold
- pKd [6, 28]: below the threshold
- pKd [7, 28]: below the threshold
- pKd [8, 28]: below the threshold
- pKd [9, 28]: below the threshold
- pKd [10, 28]: below the threshold
- pKd [11, 28]: 3.67
- pKd [12, 28]: below the threshold
- pKd [13, 28]: below the threshold
- pKd [14, 28]: below the threshold
- pKd [15, 28]: below the threshold
- pKd [16, 28]: below the threshold
- pKd [17, 28]: below the threshold
- pKd [18, 28]: below the threshold
- pKd [19, 28]: below the threshold
- pKd [20, 28]: below the threshold
- pKd [21, 28]: 3.71
- pKd [22, 28]: below the threshold
- pKd [23, 28]: below the threshold
- pKd [24, 28]: below the threshold
- pKd [25, 28]: below the threshold
- pKd [26, 28]: below the threshold
